In one data set the test system is HPPD polypeptides. Kind of data set: coupled HPPD activity assay: turnover and residual turnover in crude extracts. It counts as biochemical, Pseudomonas fluorescens. To be noted: Cmpd. 1; comparison with the reference or parent polypeptide.
The next data set deals with T0 soybean plants. The data set can be described thus: greenhouse spray test, leaf area damage score. Format: in vivo. To be noted: transgenic soybean T0 events, five days after Cmpd. 1 at 300 g AI/ha; for leaf area damage score, 25th percentile: scale 0 (no damage) to 100 (complete bleaching); for leaf area damage score, 75th percentile / leaf area damage score, 90th percentile / leaf area damage score, Median: scale 0-100. The text has this: Tolerant green shoots were transferred to rooting media or grafted. Rooted plantlets were transferred to the greenhouse after an acclimation period. Plants containing the transgene were then sprayed with HPPD inhibitor herbicides, as for example with mesotrione at a rate of 300-600 g AI/ha, or with Cmpd. 1 (2-chloro-3-(methylsulfanyl)-N-(1-methyl-1H-tetrazol-5-yl)-4-(trifluoromethyl)-benzamide) at a rate of 150 g-300 g AI/ha supplemented with ammonium sulfate and methyl ester rapeseed oil. Five to ten days after the application, the symptoms due to the application of the herbicide were evaluated and compared to the symptoms observed on wild-type plants under the same conditions. For example, T0 soybean plants having a “plant expression cassette”, which includes an HPPD inhibitor tolerant HPPD polypeptide of the present invention, were tested towards the tolerance of Cmpd. 1. Prior greenhouse trials with the transgenic plants, soybean transformants were routinely analyzed for the expression and presence of the transgenes using the ELISA protein detection method (see detailed description under item D and H). Only plants recovering in the selection media and having a detectable HPPD transgene protein expression were used for the herbicide tolerance analysis. A DeVries Tracker Sprayer was calibrated prior to each spraying. The chemical formulation used for Cmpd. 1 was supplemented with ammonium sulfate and methylated rape seed oil. Spray tests were conducted with a concentration, which equals to 300 grams AI per hectare (300 g AI/ha).
In greenhouse trials, independent T0 soybean events containing an exemplary mutant HPPD polypeptide were sprayed with the HPPD inhibitor herbicide Cmpd. 1 (2-chloro-3-(methylsulfanyl)-N-(1-methyl-1H-tetrazol-5-yl)-4-(trifluoromethyl)benzamide) at the rate of 300 grams AI/ha, supplemented with ammonium sulfate and methyl ester rapeseed oil. Five days after the application, the leaf damaged area due to the HPPD inhibitor herbicide is scored in a scale from 0 (no damage) to 100 (complete bleaching). Under those conditions, the wild-type plants were completely bleached and their damage scores were in the 95-100 range.
Table 5 presents the distribution of the HPPD inhibitor herbicide damage score data as percentile for exemplary mutant HPPD inhibitor herbicide tolerant polypeptides (SEQ ID NOs). The percentiles normalize ranks of the damage score from an individual plant in a population. […] The median is the 50th percentile. Half the values had higher damage scores; half had lower damage scores. The value of the 75th and 90th percentile is the damage score where 75% and 90% of the soybean events had lower damage scores, respectively. The difference between the 75th and 25th percentile is called the interquartile range and a marker to quantify scattering in the population. All constructs had only one single cassette insertion in the soybean genome.

Results on three molecules are retold here after patent US11180770B2, “HPPD variants and methods of use” (BASF Agricultural Solutions Seed US LLC, priority 2017, dated 2021).

B1: SEQ ID NO: 47: mutant PfHPPD: 268A 270N 335P 336H 337S 340V 344Q 345M (protein)
chain: MADLYENPMGLMGFEFIEFASPTPGTLEPIFEIMGFTKVATHRSKNVHLYRQGEINLILNNEPNSIASYFAAEHGPSVCGMAFRVKDSQKAYNRALELGAQPIHIDTGPMELNLPAIKGIGGAPLYLIDRFGEGSSIYDIDFVYLEGVERNPVGAGLKVIDHLTHNVYRGRMVYWANFYEKLFNFREARYFDIKGEYTGLTSKAMSAPDGMIRIPLNEESSKGAGQIEEFLMQFNGEGIQHVAFLTDDLVKTWDALKKIGMRFMTAPADNYYEMLEGRLPDHGEPVDQLQARGILLDGSSVEGDKRLLLQIFSETLMGPVFFEFIQRKGDDGFGPHSFKVLFEQMERDQVRRGVLTAD
modifications: mutant HPPD polypeptide
notes: mutant PfHPPD: 268A 270N 335P 336H 337S 340V 344Q 345M
In the case of B1, in the data set on HPPD polypeptides, the “turnover / residual turnover in the presence of Cmpd. 1 compared with a reference HPPD polypeptide, in words” value was “significant increase in the residual turnover”. For the same molecule, in the data set on T0 soybean plants, the “leaf area damage score, 25th percentile” value turned out to be 5.0; the “leaf area damage score, 75th percentile” value is listed as 15.0; the “leaf area damage score, 90th percentile” value came out at 51.0; the “leaf area damage score, Median” value is 15.0.

B2: SEQ ID NO: 68: mutant PfHPPD: 268A 270S 315Q 335P 336H 337S 340V 344Q 345M (protein)
chain: MADLYENPMGLMGFEFIEFASPTPGTLEPIFEIMGFTKVATHRSKNVHLYRQGEINLILNNEPNSIASYFAAEHGPSVCGMAFRVKDSQKAYNRALELGAQPIHIDTGPMELNLPAIKGIGGAPLYLIDRFGEGSSIYDIDFVYLEGVERNPVGAGLKVIDHLTHNVYRGRMVYWANFYEKLFNFREARYFDIKGEYTGLTSKAMSAPDGMIRIPLNEESSKGAGQIEEFLMQFNGEGIQHVAFLTDDLVKTWDALKKIGMRFMTAPADSYYEMLEGRLPDHGEPVDQLQARGILLDGSSVEGDKRLLLQIFSEQLMGPVFFEFIQRKGDDGFGPHSFKVLFEQMERDQVRRGVLTAD
modifications: mutant HPPD polypeptide
notes: mutant PfHPPD: 268A 270S 315Q 335P 336H 337S 340V 344Q 345M
For the molecule B2, the “turnover / residual turnover in the presence of Cmpd. 1 compared with a reference HPPD polypeptide, in words” value with HPPD polypeptides is “increase significantly the turnover and the residual turnover”. Further, in the data set on T0 soybean plants, the “leaf area damage score, 25th percentile” value is recorded as 5.0; the “leaf area damage score, 75th percentile” value is reported as 16.3; the “leaf area damage score, 90th percentile” value came out at 20.0; the “leaf area damage score, Median” value is given as 10.0.

B3: SEQ ID NO: 66: mutant PfHPPD: 213K 268A 270S 335P 336H 337S 340V 344Q 345M (protein)
chain: MADLYENPMGLMGFEFIEFASPTPGTLEPIFEIMGFTKVATHRSKNVHLYRQGEINLILNNEPNSIASYFAAEHGPSVCGMAFRVKDSQKAYNRALELGAQPIHIDTGPMELNLPAIKGIGGAPLYLIDRFGEGSSIYDIDFVYLEGVERNPVGAGLKVIDHLTHNVYRGRMVYWANFYEKLFNFREARYFDIKGEYTGLTSKAMSAPDGMIKIPLNEESSKGAGQIEEFLMQFNGEGIQHVAFLTDDLVKTWDALKKIGMRFMTAPADSYYEMLEGRLPDHGEPVDQLQARGILLDGSSVEGDKRLLLQIFSETLMGPVFFEFIQRKGDDGFGPHSFKVLFEQMERDQVRRGVLTAD
modifications: mutant HPPD polypeptide
notes: mutant PfHPPD: 213K 268A 270S 335P 336H 337S 340V 344Q 345M
Take B3: the “turnover / residual turnover in the presence of Cmpd. 1 compared with a reference HPPD polypeptide, in words” value with HPPD polypeptides was “increase significantly the turnover and the residual turnover”. Also, in the data set with T0 soybean plants, the “leaf area damage score, 25th percentile” value amounted to 5.0; the “leaf area damage score, 75th percentile” value is 25.0; the “leaf area damage score, 90th percentile” value is 41.0; the “leaf area damage score, Median” value came to 10.0.
